# Test results: patent US20250179160A1 (OMEROS, published 2025)
# What was measured:
# [1] = biological target: T1, purified (from human plasma) human Factor D (human, UniProt P00746 26-253); assay: sandwich ELISA: coat 3C5 (human IgG4) 3 ug/mL, sample in 3-fold dilutions (ug/ml Df), detection 14A11 (mouse IgG2a) 3 ug/mL, HRP donkey anti-mouse IgG; OD450
# T1 construct: also called hu purif; CFD; purified human complement factor D (Complement Technologies)
# Experimental: (§1) An HRP-labeled F(ab′)₂ fragment donkey anti-mouse IgG H&L antibody (Jackson ImmunoResearch) was used to signal the detection antibody, followed by development with TMB substrate (ThermoFisher).
# (§2) Wells were then washed three times. […] The plates were washed three times. 100 μL of Horseradish Peroxidase labeled F(ab′)2 Fragment Donkey anti-Mouse IgG H&L antibody (Jackson ImmunoResearch), diluted 1:30,000, was added to each well and incubated for one hour at room temperature. Wells were then washed three times.
# [2] = biological target: T2, recombinant human mature Factor D (human, UniProt P00746 26-253); assay: as above
# T2 construct: also called mature CFD; hCFD
# Experimental: as §1, §2
# [3] = biological target: T3, recombinant cynomolgus mature Factor D (cynomolgus monkey); assay: as above
# T3 construct: mature; not tied by words to this reagent; also called cy Mat CFD; cynomolgus recombinant mature Factor D
# Experimental: as §1, §2
# [4] = biological target: T2, recombinant human mature Factor D; assay: sandwich ELISA: coat 3C5 (human IgG4), sample titrated (ug/ml Df), detection 14A11 (mouse IgG2a), HRP donkey anti-mouse IgG; OD450
# Text: as §1
# [5] = biological target: T3, recombinant cynomolgus mature Factor D; assay: sandwich ELISA standard curve: coat 3C5 (human IgG4) 3 ug/mL, recombinant cynomolgus mature Factor D titrated, detection 14A11 3 ug/mL, HRP donkey anti-mouse IgG; OD450
# Text: After washing, an HRP-labeled secondary antibody (HRP-labeled F(ab′)2 Fragment Donkey anti-Mouse IgG H&L antibody (Jackson ImmunoResearch)) was used to signal the detection antibody, followed by development with TMB (ThermoFisher). Samples were interpolated from a 4-parameter logistics curve of cynomolgus recombinant mature Factor D dilutions.
# [6] = biological target: T2, recombinant human mature Factor D; assay: sandwich ELISA: coat 12H10 (human IgG4), sample titrated (ug/ml Df), detection 14A11 (mouse IgG2a), HRP donkey anti-mouse IgG; OD450
# Text: as §1
# [7] = biological target: T3, recombinant cynomolgus mature Factor D; assay: as above
# Text: as §1
# [8] = biological target: T4, recombinant human Pro-Factor D (human, UniProt P00746 20-253); assay: sandwich ELISA: coat goat polyclonal AF1824; 2 ug/mL recombinant CFD spiked into buffer or 10% Factor D-depleted serum; detection with 14A11 hybridoma supernatant diluted in half, HRP goat anti-mouse IgG Fc; OD450
# T4 construct: also used for the endogenous pro-Factor D detected in 3MC patient serum; also called pro CFD; hPro-CFD
# Experimental: ELISA plates were coated overnight at 4° C. with polyclonal goat anti-human CFD AF1824 (R&D Systems). Plate wells were washed, blocked, and washed again. Normal human serum pool, normal human plasma pool or Factor D-depleted human serum were diluted 10-fold in assay buffer (PBS with 1% BSA and 0.05% Tween 20, PBST-BSA), either un-spiked or spiked with 2 μg/mL recombinant pro-(pro CFD) or mature-factor D (mature CFD). These matrices, including a buffer control with or without recombinant protein spiked in, were incubated for 60 minutes at room temperature, and then washed. […] The detection antibodies were incubated for one hour at room temperature and washed, then developed with a horseradish peroxidase (HRP)-labeled goat polyclonal to mouse IgG Fc (Jackson ImmunoResearch).
Binder,EC50 (read off the curve) [1] [µg/mL],EC50 (read off the curve) [2] [µg/mL],EC50 (read off the curve) [3] [µg/mL],EC50 (read off the curve) [4] [µg/mL],EC50 (read off the curve) [5] [µg/mL],EC50 (read off the curve) [6] [µg/mL],EC50 (read off the curve) [7] [µg/mL],binding result [8]
"14A11, mouse IgG2a Fc version (antibody, Recombinant, mouse IgG2a and mouse kappa constant regions; also called mAb 14A11; detection antibody 14A11 (anti-human/cyno mature-Factor D-specific)) heavy: QITLKESGPGILQSSQTLSLTCSFSGVSLTTSGMGVSWIRQPSGKGLEWLAHIYWDDEKHYHPSLKSRLTISKDASRNQVFFRILSVDTADTATYYCALRYYGYRSFMDYWGQGTSVTVSSAKTTAPSVYPLAPVCGDTTGSSVTLGCLVKGYFPEPVTLTWNSGSLSSGVHTFPAVLQSDLYTLSSSVTVTSSTWPSQSITCNVAHPASSTKVDKKIEPRGPTIKPCPPCKCPAPNLLGGPSVFIFPPKIKDVLMISLSPIVTCVVVDVSEDDPDVQISWFVNNVEVHTAQTQTHREDYNSTLRVVSALPIQHQDWMSGKEFKCKVNNKDLPAPIERTISKPKGSVRAPQVYVLPPPEEEMTKKQVTLTCMVTDFMPEDIYVEWTNNGKTELNYKNTEPVLDSDGSYFMYSKLRVEKKNWVERNSYSCSVVHEGLHNHHTTKSFSRTPGK light: DVLMTQSPLSLPVSLGDQASIFCRSNQSIVHSNGNTYFEWYLQKPGQSPKLLIYKVSNRFSGVPDRFSGSGSGTDFTLRISRVEAEDLGIYYCFQGSHVPPTFGGGTKLEIKRADAAPTVSIFPPSSEQLTSGGASVVCFLNNFYPKDINVKWKIDGSERQNGVLNSWTDQDSKDSTYSMSSTLTLTKDEYERHNSYTCEATHKTSTSPIVKSFNRNEC",~0.04,~0.03,~0.06,~0.02,~0.06,~0.04,~0.08,–
"14A11, hybridoma supernatant (antibody, V domains shown, Mouse hybridoma antibody) VH: QITLKESGPGILQSSQTLSLTCSFSGVSLTTSGMGVSWIRQPSGKGLEWLAHIYWDDEKHYHPSLKSRLTISKDASRNQVFFRILSVDTADTATYYCALRYYGYRSFMDYWGQGTSVTVSS VL: DVLMTQSPLSLPVSLGDQASIFCRSNQSIVHSNGNTYFEWYLQKPGQSPKLLIYKVSNRFSGVPDRFSGSGSGTDFTLRISRVEAEDLGIYYCFQGSHVPPTFGGGTKLEIKR",–,–,–,–,–,–,–,no binding
